Patent publication US20180095078

Key:
[1] = molecular target: Hepatitis B surface antigen (HBsAg) (Hepatitis B virus) (UniProt P03138); experiment: pulldown; settings: magnetic bead pulldown with q-PCR; BD buffer, room temperature
[2] = molecular target: HCV NS3 protein (Hepatitis C virus) (UniProt P27958); experiment: pulldown; settings: magnetic bead pulldown with q-PCR; BD buffer, room temperature
Chain of HCV NS3 protein (Hepatitis C virus) (P27958 1027-1657): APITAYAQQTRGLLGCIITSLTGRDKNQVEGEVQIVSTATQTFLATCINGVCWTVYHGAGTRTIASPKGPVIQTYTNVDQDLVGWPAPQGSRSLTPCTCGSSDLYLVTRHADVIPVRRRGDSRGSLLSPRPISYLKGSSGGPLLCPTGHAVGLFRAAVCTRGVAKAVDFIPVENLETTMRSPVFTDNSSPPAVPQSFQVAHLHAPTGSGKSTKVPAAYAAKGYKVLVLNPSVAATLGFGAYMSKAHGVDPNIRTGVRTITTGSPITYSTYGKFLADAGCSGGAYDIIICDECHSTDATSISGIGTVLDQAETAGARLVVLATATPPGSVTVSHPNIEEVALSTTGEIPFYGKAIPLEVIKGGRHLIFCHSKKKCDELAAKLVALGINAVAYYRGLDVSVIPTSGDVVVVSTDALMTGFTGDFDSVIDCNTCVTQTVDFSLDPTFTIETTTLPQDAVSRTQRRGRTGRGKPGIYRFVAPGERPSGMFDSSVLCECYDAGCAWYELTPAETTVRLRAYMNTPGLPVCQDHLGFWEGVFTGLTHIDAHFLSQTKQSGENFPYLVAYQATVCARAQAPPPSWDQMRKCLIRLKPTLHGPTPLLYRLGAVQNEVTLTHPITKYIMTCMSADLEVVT

| Sequence | Kd [1] [nM] | Kd [2] [nM] |
| --- | --- | --- |
| AGCAGCACAGAGGTCCCAACCGGAATCTGCACCTCGCGTGCTACCGTGAA [K2-4] | 31.4 | – |
| AGCAGCACAGAGGTCCCCATGTCCACCTTTCTGTGGCGTGCTACCGTGAA [K3-1] | – | 15.9 |
| AGCAGCACAGAGGTCCTGCATCACGAAGCCTGGCAGCGTGCTACCGTGAA [MP-1] | 28.3 | 23.3 |
